Laboratory results as given in the supplement of paper PMC9170038.

Test system: MS2 coat protein
Assay: apparent KD of MS2 coat protein; designed switch direction (-1 OFF switch, 1 ON switch): -1; higher = weaker reporter binding
Procedure, shortened: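 The reported apparent KD is a per-design median over clusters, from curve fits of normalised cluster fluorescence. Protein titrations used SNAP-549-labelled MS2 coat protein, doubled from 0.7 or 1.5 nM to 3 µM, in Tris-HCl pH 7.5 buffer with KCl, MgCl2, BSA, DTT, tRNA and Tween-20, with no input, 200 uM small-molecule ligand, or an oligonucleotide input. The RNA switches were transcribed on Illumina chips by stalled E. coli RNA polymerase.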

[1] = Eterna round: R95, input ligand: FMN 200 uM
[2] = Eterna round: R95, input ligand: microRNA oligo, concentration not stated
[3] = Eterna round: R95, input ligand: none
[4] = input ligand: microRNA oligo, concentration not stated

Sequence	apparent KD of MS2 coat protein [1] [µM]	apparent KD of MS2 coat protein [2] [µM]	apparent KD of MS2 coat protein [3] [µM]	apparent KD of MS2 coat protein (input ligand: FMN 200 uM) [µM]	apparent KD of MS2 coat protein (input ligand: none) [µM]	apparent KD of MS2 coat protein [4] [µM]
UGUACGAUGCGUGCUGACAUGCGUCGUGCAGCAGGUGAUACAUGAGGAUCACCCAUGUCCUCAUUUGCUCGUCUUAU [Mat - Sensor v3 - Turn-off var 2 - D23] (puzzle: Sensor v3, turn-off variant 2)	0.0535	0.218	0.0556			
CUUAAAAGGAAGGAUAUGCUAGACGAAAGUCUAGCAGAAGGUCCUACAUGAGGAUCACCCAUGUGUCCUAUAAG [Mat - Exclusion 6 - Eli Mod - D13] (Eterna round: R97, puzzle: Exclusion 6)				0.0724	0.0811	
UGAGAACAUGAGGAUCACCCAUGUAAGGAUAUGCGAAGAGUUUGGAGAGGUUGAGGAGGCAGAAGGUACGGGAG [JR_Exclu1_Sub045] (puzzle: Exclusion 1)	0.0502	0.0499	0.0743			
GAAAACGCAGAGGAUAUUUCAGAUCCUAGCUGCAAAGAAGGCUGCACAUGAGGAUCACCCAUGUGGUCCUGAAA [Quesina mod] (Eterna round: R97, puzzle: Exclusion 6)				0.117	0.0386	
AUAAGUGAUAAGGAUAUCACUAGCUUCGGCUAGUGAGAAGGUAUCACAUGAGGAUCACCCAUGUGUUCCAAUAA [Ex6/7-A1] (Eterna round: R97, puzzle: Exclusion 6)				0.603	0.213	
UAUUAGUAAGGAUAUCUCUGCAUGGACGAAAGUCCAUGCAGAGAGAAGGUACAUGAGGAUCACCCAUGUUCAUU [Mod of Fisker 17 - Jieux - Exclusion 4] (Eterna round: R97, puzzle: Exclusion 4)				0.0171	0.015	
CCGGAAGUACAGGAUAUCGUAUCGGAAACGAUACGAGAAGGGUAUACAUGAGGAUCACCCAUGUGUCCUACCGG [Fiskers Ex 6 - 27] (puzzle: Exclusion 6)		0.0233				
GUGCUAUAGGAAGGAUAUACUUCAUUAUUUAGACAUGAGGAUCACCCAUGUAACCUUAUGUAUGUGUAGAAGGUCCAUAGCUUA (Eterna round: R96, puzzle: Exclusion NG 2)				0.0932	0.0388	0.0351
AGUAGGAGAGGAUAUACGAAGUCAAAAGACUUCAAUACUCAACAUGAGGAUCACCCAUGUAGAAGGCUCCUACA [Omei Ex2 BD A4] (Eterna round: R97, puzzle: Exclusion 2)				0.0229	0.0194	
GCACGAUAUCAGGAUAUGACUAGCUUCGGCUAGUCAGAAGGGAUGACAUGAGGAUCACCCAUGUGAUCACGUGC [E6/1-B1] (Eterna round: R97, puzzle: Exclusion 6)				0.0796	0.0605	
CUCUACGGAGGAUAUACAACCGGUUAUCCCUGUGGAACGCCACAUGAGGAUCACCCAUGUAGAAGGCCGAGAAA [Ceones] (puzzle: Exclusion 2)	0.0152	0.211	0.218			
UUAAUACAUGUAGGAUAUGCGUGGCGAAGCUAUGCAGAAGGACAUGAGGAUCACCCAUGUUCUAGCGUCCGCGUACGGAUGCAA [JL Eng1 1.21 mod 9] (Eterna round: R96, puzzle: Exclusion NG 1)				0.0164	0.0148	0.012
GGGCUCACGGUCAGGAUAUGUAAAACGUAAGUAUUAUAGAAGGGACAUGAGGAUCACCCAUGUGUGAUGAGCGC [Eternabot (L1) Solution 37] (Eterna round: R97, puzzle: Brourd's mod of Exclusion 4)				0.323	0.124	
GGCUGACGCGGUAGGCCUUACAUGAGGAUCACCCAUGUCGAUGCCAUUCCAAAACACGGGUUUGAGGUUCGUCAUUG [Eternabot (L1) Solution 46] (Eterna round: R97, puzzle: Sensor, turn-off variant 1)				0.0997	0.1	
UACAUGAGGAUCACCCAUGUUUUGUCGUGUAUGGUAUUUAUCUAGGAUAUCAAUUUAUUUAGUUAUGAGAAGGAGAAUAUUAAU [JMF's solution 22] (Eterna round: R96, puzzle: Exclusion NG 3)				0.0468	0.0379	0.0277
UCACGGGAUUGAGGAUAUAUUUAAAUUUUUACAAUAGAAGGCAAAUUUUUAGUUUUUUCACUUUACAUGAGGAUCACCCAUGUU [JR_ExcBG1_Sub082] (Eterna round: R96, puzzle: Exclusion NG 1)						0.0196
GUGUGCUGAGGAUAUACAGAGGAAGAUAAUAGAAUAGAAUGACAUGAGGAUCACCCAUGUAGAAGGCAGAGUGU [Excluse me!! 14 - Jieux - Exclusion 2] (puzzle: Exclusion 2)	0.0405	0.0263	0.0331			
UAGAUACAUGAGGAUCACCCAUGUGAGGAUAUGAGAAUUAGUUUAAAUGAAUUAAUUUUCAGAAGGCACGGAGG [JR_Ex1_Sub053] (Eterna round: R97, puzzle: Exclusion 1)				0.18	0.123	

Sequence	apparent KD of MS2 coat protein [1] [µM]	apparent KD of MS2 coat protein [2] [µM]	apparent KD of MS2 coat protein [3] [µM]	apparent KD of MS2 coat protein (input ligand: FMN 200 uM) [µM]	apparent KD of MS2 coat protein (input ligand: none) [µM]	apparent KD of MS2 coat protein [4] [µM]
UUCCUCAGCUAGGAUAUCAAGGCACCACCCUAAUGAGAAGGAGCAACAUGAGGAUCACCCAUGUGGGUUUCUUA [Aterre] (Eterna round: R97, puzzle: Exclusion 6)				0.143	0.0549	
AAGAAACAUGAGGAUCACCCAUGUCAGGAUAUCUCGAAAAGCAUAGAAAUAUGCGAAGAGAGAAGGGACAAGAA [ChP Ext 10-04-2015] (puzzle: Exclusion 1)		0.0561				
CUUAGUUGGUAAGGAUAUCCUACAUUAUUCUGACCCGUGCAAGCUACAUGAGGAUCACCCAUGUGGGAGAAGGUGCGUUAAUGU [Design 6] (Eterna round: R96, puzzle: Exclusion NG 2)				0.0184	0.0201	0.0129
GAUUAUGCGAGCUUUAGGGACAUGAGGAUCACCCAUGUUCGUCUUAUUGAUCUAAGUGCACUAACAUACCUAAAUCU [JMF 29] (puzzle: Sensor v3, turn-off variant 1)	0.0251	0.0537	0.027			
CUUUUGUGAGGAUAUUAGUAGUAAAUAAAUAAAAUUAUUACUGAGAAGGCACAUGAGGAUCACCCAUGUUCCUC [salish99_ex4_r3_062] (puzzle: Exclusion 4)		0.0351				
AAUGAUUGACGAGGAUAUUGUGGUGAAACACGACGAGAAGGCGUAUGUCACAUGAGGAUCACCCAUGUGAACUUUGUGGAUAUA [Ex NG1 #70] (Eterna round: R96, puzzle: Exclusion NG 1)				0.0304	0.0388	0.0333
UGAGUGCGUGUUAGGAUAUGGUUUGGUAUUUCGGGCUAGAAGGGACAUGAGGAUCACCCAUGUAAUUGGCGGGU [-17.2, -16.9 kcal, 22% A] (Eterna round: R97, puzzle: Brourd's mod of Exclusion 4)				0.259	0.227	
GUUAAGGUAGGAUAUACGAGAAUAUAGGGUAGAUAUAUAACACAUGAGGAUCACCCAUGUAGAAGGACCAAUUG [Mat - Exclusion 2 - Mod of my Tesla design - D57] (puzzle: Exclusion 2)		0.0331				
CAGUACUGAGGAUAUACAUGAGGAUCACCCAUGUGAUUUAGUGCACGCGUACGUGUACGUAGAAGGCAGUACUG [JL 3.27 m1] (Eterna round: R97, puzzle: Exclusion 3)				0.182	0.0208	
CUGAAUCGAGGAUAUUGUACUGCUGACAUGAGGAUCACCCAUGUAUGUUAACUCAGCCGUCGAGAAGGCGAACAUA [BotMod 33 - Jieux - Exclusion 5] (Eterna round: R97, puzzle: Exclusion 5)				0.0128	0.019	
UCUUAUUGCAAGGAUAUGCUUUUUAUUUCUUUUGCAGAAGGUGCAACAUGAGGAUCACCCAUGUUUCCGGGUAU [JR_E6_Sub034] (puzzle: Exclusion 6)		0.0238				
ACCAAAGCAGUAGGAUAUACGCACAUGAGGAUCACCCAUGUAGCACGUCUCCAGACACCGAAUGCGUAGAAGGACUGCGCGCAA [Eternabot solution 3] (Eterna round: R96, puzzle: Exclusion NG 2)				0.00786	0.017	0.00469
GAAAAGGUAGGAUAUACGGAAAAAAAGGGUAGAAAAAAAACACAUGAGGAUCACCCAUGUAGAAGGACCAAAAG [salish99_ex2_r3_030] (puzzle: Exclusion 2)	0.0609	0.0325	0.0274			
AAGGCCUGAGGAUAUCAGAGUCUAAACAUGAGGAUCACCCAUGUGAACCUGGUCAGUCUGUGAGAAGGUAGUGCUC [Tequat] (puzzle: Exclusion 5)	0.0395	0.0398	0.0573			
AAAUUCUGAGGAUAUCGAUGUUUGUACAUGAGGAUCACCCAUGUCCUUUUUAUUUAAUCCCGAGAAGGCAGUGUAU [JR_E5_Sub098] (puzzle: Exclusion 5)		0.0326				
GUCGCAAUGCAGGAUAUCCUGCUAUUCAAGGGAGGAGAAGGGCAGACAUGAGGAUCACCCAUGUGGUCCGUGCC [Eternabot (L1) Solution 3] (Eterna round: R97, puzzle: Exclusion 6)				0.16	0.17	
GGAUUCCAGUGAGGAUAUCCAAAUAAAAGCCAUGGAGAAGGCACAUGAGGAUCACCCAUGUAGGGCAAUAGCAGCGACCGCUGC [Usxeer] (Eterna round: R96, puzzle: Exclusion NG 1)				0.0608	0.0351	0.0207
